Source: patent US20150174202A1, “Methods and Compositions for Modulating Beta Cell Proliferation” (The Board of Trustees of the Leland Stanford Junior …, priority 2011, published 2015)
“Also recorded” adds a separate entry of the source.

B1: Wnt3a: purified Wnt3a protein (protein, UniProt P56704 19-352, looked up)
Protein Wnt-3a: SYPIWWSLAVGPQYSSLGSQPILCASIPGLVPKQLRFCRNYVEIMPSVAEGIKIGIQECQHQFRGRRWNCTTVHDSLAIFGPVLDKATRESAFVHAIASAGVAFAVTRSCAEGTAAICGCSSRHQGSPGKGWKWGGCSEDIEFGGMVSREFADARENRPDARSAMNRHNNEAGRQAIASHMHLKCKCHGLSGSCEVKTCWWSQPDFRAIGDFLKDKYDSASEMVVEKHRESRGWVETLRPRYTYFKVPTERDLVYYEASPNFCEPNPETGSFGTRDRTCNVSSHGIDGCDLLCCGRGHNARAERRREKCRCVFHWCCYVSCQECTRVYDVHTCK
B2: prolactin (protein, UniProt P01236 29-227, looked up)
Prolactin: LPICPGGAARCQVTLRDLFDRAVVLSHYIHNLSSEMFSEFDKRYTHGRGFITKAINSCHTSSLATPEDKEQAQQMNQKDFLSLIVSILRSWNEPLYHLVTEVRGMQEAPEAILSKAVEIEEQTKRLLEGMELIVSQVHPETKENEIYPVWSGLPSLQMADEESRLSAYYNLLHCLRRDSHKIDNYLKLLKCRIIHNNNC
notes: mitogen capable of promoting β-cell proliferation

Key:
Type in all cases: cell-based
PDGFRA = assay: Pdgfra expression in cultured adult mouse islets exposed to Wnt3a or R-Spondin; settings: isolated adult mouse islets (4-5 months of age) in culture
Description: In diverse tissues, including the pancreas, Wnt signaling activates expression of Axin2, a negative regulator of the pathway. […] This spatially and temporally restricted expression pattern is reminiscent of declining Pdgfra, Pdgfrab, and Ezh2 levels and β-cell proliferation in animals (FIG. 22B-D, Chen et al 2009, 2011). Likewise, in mice harboring a ‘Top-Gal’ synthetic reporter gene of Wnt signaling activity, β-galactosidase reporter expression declines in islet β-cells with age (FIG. 22E-G). Thus, changes in Wnt signaling underlie age-dependent reductions of Pdgfr expression and β-cell PDGF signaling competence in β-cells. Consistent with this, culture of isolated adult mouse islets (4-5 months of age) with purified Wnt3a or the Wnt agonist R-Spondin increased Pdgfra mRNA expression. As described above, Pdgfra signaling induced Ezh2 expression in islets. To assess the function of Pdgfra induced by R-Spondin, R-Spondin was added to adult mouse islets, followed by addition of purified PDGF-AA (100 ng/ml), and Ezh2 mRNA levels were then measured.

PDGFRα and PDGFRβ = assay: PDGFR mRNA in cultured adult human islets exposed to Wnt3a or R-Spondin
Ezh2 = assay: Ezh2/Ezh1 expression in cultured mouse islets (real-time RT-PCR, western blot); settings: juvenile mouse islets exposed to insulin or prolactin, 2 days
Method: Mouse pancreatic islets were purified as described in Chen et al. (2009) Genes Dev. 23, 975-985 and used immediately for assays described in the text. To study Ezh2 induction in cultured islets exposed to mitogens, freshly isolated islets from 2-3-week old, and 7-12-month old C57BL/6 mice were recovered and equilibrated overnight at 37° C., 5% CO2 in RPMI-1640 medium supplemented with 0.5% fetal bovine serum (FBS), 0.2% bovine albumin (BSA) and 2% penicillin/streptomycin. […] Immunostaining of BrdU and insulin was performed on processed islets, and β-cell proliferation rate was determined by quantifying percentage of insulin+ cells with BrdU+. […] RNA concentration was measured with a RiboGreen RNA quantification assay (Invitrogen). One-step quantitative RT-PCR was performed and analysed using an ABI Prism 7300 detection system (Applied Biosystems) with TaqMan one-step RTPCR Master Mix Reagents and appropriate amounts (10-100 ng) of islet total RNA as the template. We calculated the ratio of mRNA for the gene of interest to the amount of internal control mRNA of peptidylprolyl isomerase A (cyclophilin A, PPIA), and then normalized the ratio for each gene to its median. […]

[1] = adult human islets (mean age >40 years), exposed for two days

Molecule | Pdgfra mRNA expression (PDGFRA) | mRNA levels encoding PDGFRα (PDGFRα and PDGFRβ; [1]) | mRNA levels encoding PDGFRβ (PDGFRα and PDGFRβ; [1]) | dose dependence of induction of PDGFRA and PDGFRB mRNA (PDGFRα and PDGFRβ; cultured adult human islets) | Ezh2 mRNA levels after mitogen exposure (Ezh2)
B1 | increased | increased | increased | depends on the dose | 
B2 |  |  |  |  | did not detectably alter; also recorded: did not induce
